# Assay results from patent US20100068195A1.
# Tests used:
# [1] = molecular target: mannose-6-phosphate (M6P) receptor; assay: M6P receptor affinity column (Affi-Gel 15): 6 ug GALNS loaded, eluted with a mannose-6-phosphate gradient, quantified by GALNS ELISA
# [2] = molecular target: mannose-6-phosphate (M6P) receptor; assay: M6P receptor plate binding assay: plates coated with 4 ug/mL M6P receptor, GALNS 0.16-10 nM, bound enzyme read by 4MU-Gal-6S activity, single-site fit
# [3] = molecular target: mannose-6-phosphate (M6P) receptor; assay: M6P receptor plate binding assay (receptor-coated plate, bound enzyme read by activity)
binder,measurement,setting,value
"recombinant human N-acetylgalactosamine-6-sulfatase (GALNS) produced from G71S clone 4 (enzyme, Cys at position 53 of the precursor (position 79 of SEQ ID NO:4) converted to Calpha-formylglycine (FGly), about 90%; N-linked glycans at Asn178 (bis-phosphorylated mannose 7, BPM7) and Asn397 (oligomannose-type), numbered on the secreted polypeptide) APQPPNILLLLMDDMGWGDLGVYGEPSRETPNLDRMAAEGLLFPNFYSANPLCSPSRAALLTGRLPIRNGFYTTNAHARNAYTPQEIVGGIPDSEQLLPELLKKAGYVSKIVGKWHLGHRPQFHPLKHGFDEWFGSPNCHFGPYDNKARPNIPVYRDWEMVGRYYEEFPINLKTGEANLTQIYLQEALDFIKRQARHHPFFLYWAVDATHAPVYASKPFLGTSQRGRYGDAVREIDDSIGKILELLQDLHVADNTFVFFTSDNGAALISAPEQGGSNGPFLCGKQTTFEGGMREPALAWWPGHVTAGQVSHQLGSIMDLFTTSLALAGLTPPSDRAIDGLNLLPTLLQGRLMDRPIFYYRGDTLMAATLGQHKAHFWTWTNSWENFRQGIDFCPGQNVSGVTTHNLEDHTKLPLIFHLGRDPGERFPLSFASAEYQEALSRITSVVQQHQEALVPAQPQLNVCNWAVMNWAPPGCEKLGKCLTPPESIPKKCLWSH",M6P Receptor Column Binding: % Bound,[1],56%
same,Kd,[2],2.4 nM
"recombinant human N-acetylgalactosamine-6-sulfatase (GALNS) produced from G71S clone C2 (enzyme, active site Cys at position 53 of the precursor (position 79 of SEQ ID NO:4) converted to Calpha-formylglycine (percent not printed for this clone); N-linked glycans at Asn178 and Asn397, bis-phosphorylated oligomannose 0.69 mol/mol) APQPPNILLLLMDDMGWGDLGVYGEPSRETPNLDRMAAEGLLFPNFYSANPLCSPSRAALLTGRLPIRNGFYTTNAHARNAYTPQEIVGGIPDSEQLLPELLKKAGYVSKIVGKWHLGHRPQFHPLKHGFDEWFGSPNCHFGPYDNKARPNIPVYRDWEMVGRYYEEFPINLKTGEANLTQIYLQEALDFIKRQARHHPFFLYWAVDATHAPVYASKPFLGTSQRGRYGDAVREIDDSIGKILELLQDLHVADNTFVFFTSDNGAALISAPEQGGSNGPFLCGKQTTFEGGMREPALAWWPGHVTAGQVSHQLGSIMDLFTTSLALAGLTPPSDRAIDGLNLLPTLLQGRLMDRPIFYYRGDTLMAATLGQHKAHFWTWTNSWENFRQGIDFCPGQNVSGVTTHNLEDHTKLPLIFHLGRDPGERFPLSFASAEYQEALSRITSVVQQHQEALVPAQPQLNVCNWAVMNWAPPGCEKLGKCLTPPESIPKKCLWSH",Kd,[3],5.7 nM
